{
  "source": "patent CN112409487A",
  "about": "(NINGBO SAIPO BIOTECHNOLOGY CO LTD, dated 2021)",
  "binders": {"B1": {"name": "鼠单克隆抗体8E11 (antibody, V domains shown)", "VH": "QVQLQQSGAELVRPGTSVKISCKASGYAFTNYWLGWVKQRPGRGLEWIGDIFPGSSNTYYNEKFKGKASLTADKSSSTAYMHLSSLTSEDSAVYFCARVKDYYAMGYWGQGTSVTVSS", "VL": "ENVLTQSPAIMSASPGEKVTMTCSASSSVSYMNWYQQKSITSPKLWIYDTFKLASGVPGRFSGSGSGNSYSLTISSMEAEDVATYYCFQGSGYPYTFGGGTKLEIK", "notes": "Mouse hybridoma monoclonal antibody, purified from ascites on protein G and detected with goat anti-mouse IgG; It was coupled to latex particles in the turbidimetric assay; also called 第一单克隆抗体"}},
  "biological_target": "T1, 人可溶性转铁蛋白受体校准品 (human, UniProt P02786 101-760, limits assumed)",
  "T1 construct": "also called sTfR校准品",
  "T1 sequence (P02786 101-760 limits assumed)": "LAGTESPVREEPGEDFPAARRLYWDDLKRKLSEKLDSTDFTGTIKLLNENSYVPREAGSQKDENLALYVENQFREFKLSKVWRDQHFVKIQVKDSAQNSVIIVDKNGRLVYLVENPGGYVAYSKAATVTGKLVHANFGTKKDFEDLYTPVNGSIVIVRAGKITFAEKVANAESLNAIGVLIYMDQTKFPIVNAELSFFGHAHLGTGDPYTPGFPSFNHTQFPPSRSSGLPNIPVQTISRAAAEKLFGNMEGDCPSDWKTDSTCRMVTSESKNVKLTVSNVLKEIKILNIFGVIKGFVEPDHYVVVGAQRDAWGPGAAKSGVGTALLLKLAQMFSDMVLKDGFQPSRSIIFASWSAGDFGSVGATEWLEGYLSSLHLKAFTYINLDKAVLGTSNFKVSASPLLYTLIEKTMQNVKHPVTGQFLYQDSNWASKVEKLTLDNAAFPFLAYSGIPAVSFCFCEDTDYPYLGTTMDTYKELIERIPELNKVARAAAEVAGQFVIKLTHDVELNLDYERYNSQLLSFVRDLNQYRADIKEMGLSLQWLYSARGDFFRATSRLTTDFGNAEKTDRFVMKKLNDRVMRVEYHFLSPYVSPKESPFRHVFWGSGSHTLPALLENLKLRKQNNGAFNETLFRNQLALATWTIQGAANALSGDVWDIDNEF",
  "assay": "double-antibody sandwich latex immunoturbidimetry on the calibrator, OD570nm",
  "data": [
    {"binder": "B1", "values": [
      {"measurement": "binding result", "result": "binds"}
    ]}
  ]
}
